# What was measured:
# [1] = HPLC time course of PmST1-catalyzed α2-3-sialylation of Le^xβMU; format: biochemical; conditions: Le^xβMU 1 mM, one equivalent of CMP-Neu5Ac
# Description: Numbers in parentheses represent the % consumption of CMP-Neu5Ac by capillary electrophoresis (CE) assays.
# In fact, donor hydrolysis has been observed in other glycosyltransferase-catalyzed reactions that lead to lower synthetic yields. […] Two recent papers discussed the donor hydrolysis activities of human blood group A and B glycosyltransferases (GTA and GTB) which are Mn^2+-dependent and the UDP-Gal hydrolysis activity of GTB is increased in the presence of an acceptor substrate analog. Nevertheless, the effect of donor hydrolysis of glycosyltransferases on glycosylation processes has not been investigated in detail. In addition, no strategy has been reported for improving the yields of glycosyltransferase-catalyzed reactions by decreasing donor hydrolysis activity.
# [2] = Thermal stability studies by HPLC; format: physicochemical; conditions: incubating at 37° C. for up to 2 hours
# Method: Stability studies by HPLC. Thermal stability studies were carried out by incubating wild-type PmST1 or E271F/R313Y mutant solution (20 μg mL^−1) at 37° C. Samples were withdrawn at various time intervals for enzyme activity assays.
# [3] = α2-3-sialidase activity assay with sialyl Le^x substrate (HPLC); format: biochemical; conditions: substrate 1 mM, enzyme 4 mg mL^−1, MES pH 5.5, 37° C.
# Method: The α2-3-sialidase activity assays of PmST1 and mutants. The reactions were carried out in duplicate in a total volume of 10 μL at 37° C. for 20 hr in MES buffer (100 mM, pH 5.5) containing Neu5Acα2-3Le^xβMU (1 mM) and an enzyme (4 mg mL^−1). Aliquots of 1 μL were withdrawn at 1 hr, 6 hr and 20 hr, and analyzed by HPLC as described above for the α2-3-sialyltransferase assays.
molecule,measurement,setting,value
"WT: multifunctional α2-3-sialyltransferase from Pasteurella multocida (PmST1), wild type sequence SEQ ID NO: 13; control enzyme (protein, listed as Pasteurella multocida, PmST1 wild-type glycosyltransferase family 80 (GT80), GT80 sialyltransferase, Pm0188Ph, control enzyme) MKNRRLNFKLFFLIIFSLFSTLSWSKTITLYLDPASLPALNQLMDFTQNNEDKTHPRIFGLSRFKIPDNIITQYQNIHFVELKDNRPTEALFTILDQYPGNIELNIHLNIAHSVQLIRPILAYRFKHLDRVSIQQLNLYDDGSMEYVDLEKEENKDISAEIKQAEKQLSHYLLTGKIKFDNPTIARYVWQSAFPVKYHFLSTDYFEKAEFLQPLKEYLAENYQKMDWTAYQQLTPEQQAFYLTLVGFNDEVKQSLEVQQAKFIFTGTTTWEGNTDVREYYAQQQLNLLNHFTQAEGDLFIGDHYKIYFKGHPRGGEINDYILNNAKNITNIPANISFEVLMMTGLLPDKVGGVASSLYFSLPKEKISHIIFTSNKQVKSKEDALNNPYVKVMRRLGIIDESQVIFWDSLKQL",time to reach yield plateau,[1],≤ 2 min
same,yield plateau of sialylation of Le^xβMU,[1],1.1-1.3%
same,"thermal stability of α2-3-sialyltransferase activity (FIG. 3, in words)",[2],did not decrease their activities significantly
same,Neu5Ac cleaved from Neu5Acα2-3Le^xβMU,[3]; 1 h,2.0%
same,Neu5Ac cleaved from Neu5Acα2-3Le^xβMU,[3]; 6 h,7.0%
same,Neu5Ac cleaved from Neu5Acα2-3Le^xβMU,[3]; 20 h,7.5%

# From patent US9255257B2, “PmST1 mutants for chemoenzymatic synthesis of sialyl lewis X compounds” (THE REGENTS OF THE UNIVERSITY OF CALIFORNIA, priority 2011, dated 2016)
